Measured values: PMC2267099, “Inhibition of Horse Liver Alcohol Dehydrogenase by Methyltin Compounds” (Bioinorganic Chemistry and Applications, 2005)

Substrate: CCO
Assay: purified protein
Type: biochemical, Equus caballus
Conditions: no inhibitor, NAD+ 0.6 mM, pH 9.5 TRIS-HCl 0.05 M, room temperature

B1: alcohol dehydrogenase from horse liver (HLADH) (Equus caballus) (protein)
chain: STAGKVIKCKAAVLWEEKKPFSIEEVEVAPPKAHEVRIKMVATGICRSDDHVVSGTLVTPLPVIAGHEAAGIVESIGEGVTTVRPGDKVIPLFTPQCGKCRVCKHPEGNFCLKNDLSMPRGTMQDGTSRFTCRGKPIHHFLGTSTFSQYTVVDEISVAKIDAASPLEKVCLIGCGFSTGYGSAVKVAKVTQGSTCAVFGLGGVGLSVIMGCKAAGAARIIGVDINKDKFAKAKEVGATECVNPQDYKKPIQEVLTEMSNGGVDFSFEVIGRLDTMVTALSCCQEAYGVSVIVGVPPDSQNLSMNPMLLLSGRTWKGAIFGGFKSKDSVPKLVADFMAKKFALDPLITHVLPFEKINEGFDLLRSGESIRTILTF
notes: commercial native enzyme from horse liver (Fluka AG), full length, used as received
  Km: 46.7 ± 0.8 mM
